Substitutions are numbered along the chain they refer to. In names and notes the source's numbering stands.
B1: emerin fragment from amino acid 1 to amino acid 187 (EmN), wild type, His-tagged (domain or fragment, human, UniProt P50402 1-187, looked up)
chain: MDNYADLSDTELTTLLRRYNIPHGPVVGSTRRLYEKKIFEYETQRRRLSPPSSSAASSYSFSDLNSTRGDADMYDLPKKEDALLYQSKGYNDDYYEESYFTTRTYGEPESAGPSRAVRQSVTSFPDADAFHHQVHDDDLLSSSEEECKDRERPMYGRDSAYQSITHYRPVSASRSSLDLSYYPTSSS
B2: EmN variant S54F (domain or fragment, human, UniProt P50402 1-187, looked up)
chain: B1 chain with S54F
B3: EmN variant P183T (domain or fragment, human, UniProt P50402 1-187, looked up)
chain: B1 chain with P183T
B4: EmN variant Q133H (domain or fragment, human, UniProt P50402 1-187, looked up)
chain: B1 chain with Q133H
B5: EmN variant P183H (domain or fragment, human, UniProt P50402 1-187, looked up)
chain: B1 chain with P183H
B6: emerin fragment from amino acid 1 to amino acid 187 (EmN), wild type, His-tag cleaved (domain or fragment, human, UniProt P50402 1-187, looked up)
chain: B1 chain

Key:
AUC = biological target: the molecule itself; assay: AUC
[1] = biological target: the molecule itself; assay: thioflavin T fluorescence

Protein	binding result [1]	further results
B1	–	stoichiometry N (AUC): 2
B2	binds	–
B3	binds	–
B4	binds	–
B5	binds	–
B6	–	fold increase in ThT fluorescence intensity at 480 nm [1]: 10 fold
